According to US11306156:

Key:
[1] = target: tissue factor (TF) antigen (UniProt P13726); experiment: SPR, Fab captured on anti-penta His surface, TF as analyte, 1:1 fit
[2] = target: tissue factor (TF) (human) (UniProt P13726); experiment: SPR (ProteOn), Fab captured on anti-penta His, TF analyte, 1:1 fit
[3] = target: tissue factor (TF) antigen (UniProt P13726); experiment: SPR, Fab captured on anti-penta-His, TF as analyte, 1:1 fit

tissue factor (TF) (human), sequence (P13726 33-251 limits assumed): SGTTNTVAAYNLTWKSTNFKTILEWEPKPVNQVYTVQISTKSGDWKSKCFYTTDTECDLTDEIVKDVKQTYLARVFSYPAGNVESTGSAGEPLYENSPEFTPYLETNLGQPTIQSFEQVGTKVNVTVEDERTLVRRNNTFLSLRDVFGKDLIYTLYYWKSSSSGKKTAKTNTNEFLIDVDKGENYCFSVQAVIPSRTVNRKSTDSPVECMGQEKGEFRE
tissue factor (TF) antigen, sequence (P13726 33-251 limits assumed): as above

Change in KD with respect to wild type (-(log(KD design) - log(KD wt))) [1] | Kd [1] | Kd [2] | change in KD vs wild type, -(log(KD design)-log(KD wt)) [2] | Substance | also measured
-0.28 | 0.3 nM |  |  | D3H44 Fab heterodimer, H1L1 of LCCA Set # 9754 (H1 L45P_L143E_K145T_Q179E; L1 P44F_Q124R_Q160K_T178R) | 
-0.04 | 0.17 nM |  |  | D3H44 Fab heterodimer, H1L1 of LCCA Sets # 9094, 9095 and 9096 (H1 L124A_L143F_Q179K; L1 Q124E_V133W_S176T_T178L_T180E) | 
 |  | 0.24 nM | -0.19 | H1L1 Fab heterodimer of LCCA set 9491 (D3H44 Fab; H: L124R_S186K; L: V133G_S176D_T180E) | 
 |  | 0.28 nM | -0.26 | H1L1 Fab heterodimer of LCCA set 9447 (D3H44 Fab; H: L124R_Q179K; L: V133G_S176D_T180E) | 
 |  | 0.2 nM | -0.1 | H1L1 Fab heterodimer of LCCA set 9351 (D3H44 Fab; H: L124R_D146N_Q179K; L: Q124E_V133G_S176D_T178E_T180E) | 
-0.09 | 0.19 nM |  |  | D3H44 Fab heterodimer, H1L1 of LCCA Set # 9099 (H1 L124A_Q179K; L1 Q124E_V133W_S176T_T178L_T180E) | 
 |  | 0.11 nM | 0.14 | H1L1 Fab heterodimer of LCCA set 9906 (D3H44 Fab; H: S188G; L: S176L) | 
 |  | 0.13 nM | 0.07 | H1L1 Fab heterodimer of LCCA set 6037 (D3H44 Fab; H: L124A; L: V133W) | 
-0.01 | 0.16 nM |  |  | D3H44 Fab heterodimer, H1L1 of LCCA Set # 9074 (H1 H172R_Q179K; L1 Q124E_Q160E_T180E) | 
0.01 | 0.15 nM |  |  | D3H44 Fab heterodimer, H1L1 of LCCA Sets # 9076, 9077 and 9078 (H1 H172T_Q179K; L1 Q124E_N137K_Q160E_S174R_T180E) | 
-0.1 | 0.2 nM |  |  | D3H44 Fab heterodimer, H1L1 of LCCA Set # 9820 (H1 Q39E_L143E_K145T_Q179E; L1 Q38R_Q124R_Q160K_T178R) | 
 |  | 0.28 nM | -0.25 | H1L1 Fab heterodimer of LCCA set 9205 (D3H44 Fab; H: L124E_L143D_K145M; L: V133G_S176R_T178K) | 
 |  | 0.28 nM | -0.25 | H1L1 Fab heterodimer of LCCA set 9732 (D3H44 Fab; H: L143K; L: Q124E_V133D_S176L) | 

More lines, now with the values behind:

Substance | Change in KD with respect to wild type (-(log(KD design) - log(KD wt))) [1] | Kd [1] | Kd [2] | change in KD vs wild type, -(log(KD design)-log(KD wt)) [2] | also measured
D3H44 Fab heterodimer, H1L1 of LCCA Sets # 9090, 9091 and 9092 (H1 L124A_L143F_Q179K; L1 Q124E_V133W_S176T_T178E_T180E) | -0.02 | 0.16 nM |  |  | 
D3H44 Fab heterodimer, H1L1 of LCCA Set # 9818 (H1 Q39E_L143E_K145T_H172R; L1 Q38R_Q124R_Q160K_T178R) | -0.07 | 0.18 nM |  |  | 
D3H44 Fab heterodimer, H1L1 of LCCA Set # 9822 (H1 Q39R_D146G_Q179K; L1 Q38E_Q124E_Q160E_T180E) | 0.17 | 0.11 nM |  |  | 
H1L1 Fab heterodimer of LCCA set 9734 (D3H44 Fab; H: L143K_D146G; L: Q124E_V133D) |  |  | 0.26 nM | -0.22 | 
H1L1 Fab heterodimer of LCCA set 9573 (D3H44 Fab; H: L143A_Q179K; L: Q124E_V133Y_T180E) |  |  | 0.27 nM | -0.23 | 
D3H44 Fab heterodimer, H L124E_L143D_K145T / L Q124K_V133G_S176R_T178R |  |  |  |  | Change in KD with respect to wild type (-(log(KD design) - log(KD wt))) [3]: -0.02; Kd [3]: 0.15 nM
H1L1 Fab heterodimer of LCCA set 9566 (D3H44 Fab; H: L124W_L143F; L: V133A) |  |  | 0.25 nM | -0.21 | 
H1L1 Fab heterodimer of LCCA set 9071 (D3H44 Fab; H: F174V; L: S131T_S176F_T178F) |  |  | 0.21 nM | -0.12 | 
D3H44 Fab heterodimer, H1L1 of LCCA Sets # 9560 and 9561 (H1 L124W_L143E_K145T_Q179E; L1 Q124R_V133A_S176T_T178R) | -0.13 | 0.21 nM |  |  | 
H1L1 Fab heterodimer of LCCA set 9213 (D3H44 Fab; H: L124E_L143D_K145T; L: Q124K_V133G_S176R) |  |  | 0.2 nM | -0.11 | 
H1L1 Fab heterodimer of LCCA set 9737 (D3H44 Fab; H: L143R; L: Q124E_V133E) |  |  | 0.2 nM | -0.09 | 
D3H44 Fab heterodimer, H1L1 of LCCA Set # 9823 (H1 Q39R_H172R_Q179K; L1 Q38E_Q124E_Q160E_T180E) | -0.18 | 0.24 nM |  |  | 
H1L1 Fab heterodimer of LCCA set 9175 (D3H44 Fab; H: L124E_L143D_K145M; L: Q124K_V133G_S176R) |  |  | 0.25 nM | -0.21 | 
D3H44 Fab heterodimer, H L124E_L143D_K145M / L Q124K_V133G_S176R_T178K |  |  |  |  | Change in KD with respect to wild type (-(log(KD design) - log(KD wt))) [3]: -0.15; Kd [3]: 0.22 nM
H1L1 Fab heterodimer of LCCA set 9911 (D3H44 Fab; H: S188L; L: WT) |  |  | 0.09 nM | 0.27 | 
D3H44 Fab heterodimer, H L124E_L143D_K145T / L Q124K_V133G_S176R_T178K |  |  |  |  | Change in KD with respect to wild type (-(log(KD design) - log(KD wt))) [3]: -0.08; Kd [3]: 0.19 nM
H1L1 Fab heterodimer of LCCA set 9043 (D3H44 Fab; H: F122C_C233S; L: S121C_C214S) |  |  | 0.16 nM |  | 
D3H44 Fab heterodimer, H L124E_L143E_K145M / L Q124K_V133G_S176R_T178K |  |  |  |  | Change in KD with respect to wild type (-(log(KD design) - log(KD wt))) [3]: -0.19; Kd [3]: 0.24 nM
H1L1 Fab heterodimer of LCCA set 9364 (D3H44 Fab; H: L124R_D146N_Q179K; L: V133G_S176D_T180E) |  |  | 0.15 nM | 0.01 | 
D3H44 Fab heterodimer, H L124R_S186R / L V133G_S176D_T178E_T180E |  |  |  |  | Change in KD with respect to wild type (-(log(KD design) - log(KD wt))) [3]: -0.15; Kd [3]: 0.22 nM
H1L1 Fab heterodimer of LCCA set 9987 (D3H44 Fab; H: L143E_K145T; L: Q124R_T178R) |  |  | 0.11 nM | 0.15 | 
H1L1 Fab heterodimer of LCCA set 9725 (D3H44 Fab; H: L143E_K145T_S188L; L: Q124R_Q160K_T178R) |  |  | 0.24 nM | -0.19 | 
D3H44 Fab heterodimer, H L124E_L143E_K145M / L Q124K_V133G_S176R_T178R |  |  |  |  | Change in KD with respect to wild type (-(log(KD design) - log(KD wt))) [3]: -0.29; Kd [3]: 0.31 nM
